How the values were obtained:
[1] = target: copper-induced oxidized low density lipoprotein (Cu-OxLDL) (UniProt P04114); assay: chemiluminescent ELISA, against Fab IK17 as reference
[2] = target: malondialdehyde low density lipoprotein (MDA-LDL) (UniProt P04114); assay: as above
[3] = target: copper-induced oxidized low density lipoprotein (Cu-OxLDL) (UniProt P04114); assay: cell-based or functional assay
[4] = target: copper-induced oxidized low density lipoprotein (Cu-OxLDL) (UniProt P04114); assay: competition: ^125I-Cu-OxLDL binding to mouse peritoneal macrophages at 4 C, IK17 as competitor
[5] = target: malondialdehyde low density lipoprotein (MDA-LDL) (UniProt P04114); assay: direct binding and competition assays with affinity purified Fab; method of the affinity value not stated

| Binder | fold greater binding activity than parent Fab [1] | fold greater binding activity than parent Fab [2] | degradation of ^125I-Cu-OxLDL by macrophages (TCA-soluble ^125I in medium), % inhibition [3] | % inhibition of binding of ^125I-Cu-OxLDL to macrophages [4] | Kd [5] |
| --- | --- | --- | --- | --- | --- |
| scFv IK17 (scFv, part only; not given: linker and His tag, not shown: small tags and cut ends) scFv, part: MAEVQLLESGGDLVQPGGSLRLSCIVSGSTFSNYAMSWVRQAPGKGLEWVSAISGTGRSTNYADSVKGRFTISRDNSKDTLYLEMNSLRAEDTATYYCTRTPRIDFWNIANRHFDYWGQGTRVTVSSASTKGPSVFPLAPSSKSTSGGTAALGCLVRDYFPEPVTVSWNSGALTSGVHTFPAVLQSSGLYSLSSVVTVPSSVLTQSPATLSLSPGERVTLSCRASQSVSSSLAWYQQKPGQAPRLLIYDASNRATGVPARFSGSGSGTDFTLTISGLEPEDFAVYYCQQRYNWPPKYTFGQGTKLEIRRTVAAPSVFIFPPSDEQLKSGTASVVCLLNNFYPREAKVQWKVG | 50 to 500 fold | 50 to 500 fold | – | – | – |
| IK17 human monoclonal IgG Fab (Fab, V domains shown) VH: EVQLLESGGDLVQPGGSLRLSCIVSGSTFSNYAMSWVRQAPGKGLEWVSAISGTGRSTNYADSVKGRFTISRDNSKDTLYLEMNSLRAEDTATYYCTRTPRIDFWNIANRHFDYWGQGTRVTVSS VL: VLTQSPATLSLSPGERVTLSCRASQSVSSSLAWYQQKPGQAPRLLIYDASNRATGVPARFSGSGSGTDFTLTISGLEPEDFAVYYCQQRYNWPPKYTFGQGTKLEIRR | – | – | 50 to 65% | 70 to 85% | 37 nM |
